Test: soluble on expression in E. coli; label from the status in PepcDB or PDB records
With “MIKILDASAFIHGYNPSIEDGEHYTTNGIVSEVVSKEDIVKLAIEYGKLKILDPKPETIEKVVKTSIETGDTISNNDIEILALAIDLGGTLYTDDYGLQNVSKKLKINYENIVSAGSKDDFVWKKICKGCKKMYPINYLDEECEVCGSPLYRKMVKNRLKKGKKFYDKKKKPKKLFLEHHHHHH” the “soluble on expression in E. coli” value was “soluble”.
With “MIKKAFCMQVYPDQHAEYQRRHEKLWPEMRQMLKEHGAIKYQIFLNPETSTLFGYLEIEDEARWEQIALTPINQKWWNYMEDIMETNPDCSPMTAELKKVFEL” the “soluble on expression in E. coli” value was “not soluble”.
In the case of “MIKLRMPAGGERYIDGKSVYKLYLMIKQHMNGKYDVIKYNWCMRVSDAAYQKRRDKYFFQKLSEKYKLKELALIFISNLVANQDAWIGDISDADALVFYREYIGRLKQIKFKFEEDIRNIYYFSKKVEVSAFKEIFEYNPKVQSSYIFKLLQSNIISFETFILLDSFLNIIDKHDEQTDNLVWNNYSIKLKAYRKILNIDSQKAKNVFIETVKSCKY”, the “soluble on expression in E. coli” value is reported as “soluble”.
With “MIKLSNITKVFHQGTRTIQALNNVSLHVPAGQIYGVIGASGAGKSTLIRCVNLLERPTEGSVLVDGQELTTLSESELTKARRQIGMIFQHFNLLSSRTVFGNVALPLELDNTPKDEVKRRVTELLSLVGLGDKHDSYPSNLSGGQKQRVAIARALASNPKVLLCDEATSALDPATTRSILELLKDINRRLGLTILLITHEMDVVKRICDCVAVISNGELIEQDTVSEVFSHPKTPLAQKFIQSTLHLDIPEDYQERLQAEPFTDCVPMLRLEFTGQSVDAPLLSETARRFNVNNNIISAQMDYAGGVKFGIMLTEMHGTQQDTQAAIAWLQEHHVKVEVLGYV” the “soluble on expression in E. coli” value was “soluble”.
For “MIKNPILRGFNPDPSICRADTDYYIATSTFEWFPGVQIHHSKDLVNWHLVAHPLNRTSLLDMKGNPNSGGIWAPDLSYHDGKFWLIYTDVKVTDGMWKDCHNYLTTCESVDGVWSDPITLNGSGFDASLFHDNDGKKYLVNMYWDQRTYNHNFYGIVLQEYSDKEKKLIGKAKIIYKGTDIKYTEGPHIYHIGDYYYLFTAEGGTTYEHSETVARSKNIDGPYEIDPEYPLLTSWHDPRNSLQKCGHASLVHTHTDEWYLAHLVGRPLPVGNQPVLEQRGYCPLGRETSIQRIEWVDNWPRVVGGKQGSVNVEAPKIPEVKWEKTYDEKDNFDSDKLNINFQSLRIPLTENIASLKAKKGNLRLYGKESLTSTFTQAFIARRWQSFKFDASTSVSFSPDTFQQAAGLTCYYNTENWSTIQVTWNEDKGRVIDIVCCDNFHFDMPLKSNVIPIPKDVEYIHLKVEVRVETYQYSYSFDGINWSKVPAIFESRKLSDDYVQGGGFFTGAFVGINCIDITGNNKPADFDYFCYKEL”, the “soluble on expression in E. coli” value was “soluble”.
For “MIKRGFPAVLDENTEILILGSLPSDESIRKQQYYGNPGNDFWRLVGHAIGENLQDMAYEKKLKTLKHNRIGLWDVFKAGSREGSQDSKIGDEEINDFSGLKEMVPKLRLICFNGRKAGEYEPLLRGMGYETKVLPSSSGANRRFSKNRESEWEAVFRHLEHHHHHH”, the “soluble on expression in E. coli” value was “soluble”.
With “MIKTFKSKALAELYETGSSSKTDKKLFKRIIVRLDRLNVAEKPEEMNLPGFNFHALIGFHPIRYTVHINGPWCITFEFDSCNAYRVDLEQYH” the “soluble on expression in E. coli” value was “not soluble”.
With “MIKVVVRKRPLSELEKKKKDSDIITVKNNCTLYIDEPRYKVDMTKYIERHEFIVDKVFDDTVDNFTVYENTIKPLIIDLYENGCVCSCFAYGQTGSGKTYTMLGSQPYGQSDTPGIFQYAAGDIFTFLNIYDKDNTKGIFISFYEIYCGKLYDLLQKRKMVAALENGKKEVVVKDLKILRVLTKEELILKMIDGVLLRKIGVNSQNDESSRSHAILNIDLKDINKNTSLGKIAFIDLAGSERGADTVSQNKQTQTDGANINRSLLALKECIRAMDSDKNHIPFRDSELTKVLRDIFVGKSKSIMIANISPTISCCEQTLNTLRYSSRVKNKGNSKLEGKPIPNPLLGLDSSRTGHHHHHH” the “soluble on expression in E. coli” value was “soluble”.
In the case of “MILIIYAHPYPHHSHANKRMLEQAGTLENVEIRSLYHLYPDFNIDVAAEQEALSRASLIVWQHPMQWYSVPPLLKLWMDKVLTHGWAYGHGGTALHGKHLLWAVTTGGGENHFAIGSHPGFDVLSQPLQATALYCGLKWLSPFAMHCTFICDDDTLQAQARQYKQRLLAWQEVNHG”, the “soluble on expression in E. coli” value is reported as “not soluble”.
With “MILQRLFRFSSVIRSAVSVHLRRNIGVTAVAFNKELDPIQKLFVDKIREYKSKRQTSGGPVDASSEYQQELERELFKLKQMFGNADMNTFPTFKFEDPKFEVIEKPQALEHHHHHH” the “soluble on expression in E. coli” value was “not soluble”.
In the case of “MIMKKEKTYSRAPLPFVGQKRMFVSEFKKILKHFDDKTIFVDLFGGSGLLSHITKRERPDAVVIYNDHDNYRERLENIDRTNTLLRDLRKIVGIYPRHQKITGKMREAFLERIRLEETTGFVDYLTLSTSLLFSGKYAQNMEELEGLYFYNKIRQSDYRCDGYLDGLEVVCYDYKELADTYGVFPGVVFLVDPPYMGTDISTYKMDWKLADYLDVLLVLKGH”, the “soluble on expression in E. coli” value is reported as “not soluble”.
In the case of “MINLKGITKSFQNGAESIQILHGIDVTLNQGEFTSIMGPSGSGKSTLMNIIGCLDKPTTGTYELAGQNISNMSKTELAHVRNKEIGFVFQNFMLLPRLSALQNVELPLIYAGVDKKERRERSLAALTKVGLADRATHLPNELSGGQKQRVAVARAIVNNPKFILADEPTGALDTKTSTQIMDLFYELNKQGSTIIMITHDREIGEAAARQIVIRDGNIVQDWRG”, the “soluble on expression in E. coli” value is reported as “not soluble”.
With “MINRRYELFKDVSDADWNDWRWQVRNRIETVEELKKYIPLTKEEEEGVAQCVKSLRMAITPYYLSLIDPNDPNDPVRKQAIPTALELNKAAADLEDPLHEDTDSPVPGLTHRYPDRVLLLITDMCSMYCRHCTRRRFAGQSDDSMPMERIDKAIDYIRNTPQVRDVLLSGGDALLVSDETLEYIIAKLREIPHVEIVRIGSRTPVVLPQRITPELVNMLKKYHPVWLNTHFNHPNEITEESTRACQLLADAGVPLGNQSVLLRGVNDCVHVMKELVNKLVKIRVRPYYIYQCDLSLGLEHFRTPVSKGIEIIEGLRGHTSGYCVPTFVVDAPGGGGKTPVMPNYVISQSHDKVILRNFEGVITTYSEPINYTPGCNCDVCTGKKKVHKVGVAGLLNGEGMALEPVGLERNKRHVQE” the “soluble on expression in E. coli” value was “soluble”.
With “MIPFDYERATDVDSAVATVTGDPRASFLAGGTNLVDHMKLGVARPHLLVDVSRLPLGDVVELPDGGLRIGAAVRNSDLAAHDVVRARYPMLSRALLSGASGQLRNLATTAGNLLQRTRCVYFQDVTTPCNKREPGTGCSAIGGYVRYHAILGASEHCVAVHPSDMAVAMTALDGVVVVRGADGERRIPLSEFYRLPGDRPDRDTVLAHGDLVTAVELPPPPSGNRSAYRKVRDRASFAFAVVSVAAELTIGDTSITSARVALGGVAHRPWRATLAEEVLVGSPPTEATYTEAAAAELAAAQPLPGNEFKVALTRRVLASVLRSLAEEARR” the “soluble on expression in E. coli” value was “soluble”.
In the case of “MIPKKSSFIVTYAFRIKPTSPQDSGSNRMIIVITPTYKRITRLADITRLANTLSQVENLHWIVIEDGESTIPNVQNILERSELLYTYVAHRTASGYPARGWYQRDMALKLIRTNPSQILGEHEGEAVIYFADDDNSYDLRLFEDYIRNVKKLGLWAVGLAGGAAVEAPNVVNKKVTSFNFKWKSKRRFAVDMAGFAINLDYILNSSAVFGTECKRGDGAPETCLLEDLGFDLNDIEPFGYEKEASEIYSSLYSMVFYLQKNNEILVWHTKTSYSGMKVKEAEKFGYFVEP”, the “soluble on expression in E. coli” value is reported as “not soluble”.
For “MIPLCREHNKTCRVKVNYHWRVYNEDINKNAVLELSCQCQVLDQLRKTFVELGSSTIHSAADFEFSCITKDGPVVLSSGYEIYNNIRPELSFYHSQLPQLFLHVRILDVSVIAKLDDLGRTVNECKATMKSDKAWRVMKDTEIAEGQLSLQELLDKQQLEIKSLQKDISEMKLENQCRKKEDKNSFKNKEVHEASCDKCQDLIIGHRFKCAICYNYDLCETCEAAGVHAQHALIRLVSENTLFPEHLIVKNPEEVKDQNGQVQAIASSRDRAIQVPLRRLGITPQAIATKNNVSRYLNAQSDRNIIEDPWYAQHMSSRKPQTYERMHPKLKDTTDGKKVQKVSFRDRFYKKAESSLDKHEKQLRFDLSASRQEFIREKEKFRVEKETLMKQKEQIEEMMKQETINFETNRAFFSDRFEPIFNKVKDGKKSEDDTTRKVEFEVETAESNYPGSIFSDEDSLSDLAEILKDIEEYECSSESSDDQEKDDFDVVEEEAKQS”, the “soluble on expression in E. coli” value was “not soluble”.
In the case of “MIPTATYRLQFRNGMTFDRAAALVPYLKNLGISHLYASPIFTATKASTHGYDVTDANEIEPSIGGREGFERLVAELKAQGLGLIIDIVPNHMASSLENAWWRDVLEYGKESRYARHFDIDWSRRLTLPFLGDTFDAVLENGEIAIKPDPATGKPAFAYYDNYYPLAPATWQGREAEILALTDKAAIADLHERQPWKLMSWRDAARSLSYRRFFEVTGLVGMRVEDKTVFDDTHRLILELVRTGAVDGLRIDHIDGLADPKAYLARLRQEVGPACYITVEKILAKGEQLPDDWPVSGTTGYEFIASLAEVLVDDEQIDNLRQAYETVKGAPVDMRAELRAAKLLMVDRNFEGEFTRLLALALSIASELQIAQEESVVRQALRELLIAFPVYRTYGTAEGLPPTDICLLHRIVERVKTLETPPQPEALTFLSRLLTGDVPASSQEEATQFRVRFQQLTGPLMAKSVEDTLFFRQNMGLALNEVGAEPVTHHFSIERFHHEMKTRQARQPDALSGTSTHDTKRGEDARARLYTLTEAPEQWSECLARWRQMNQTHVKFLNDGTAPKSADTWMLYQALTGVWPPVLQPQDETGLNALKTRFEAFVEKALREAKLRTDWVDSNEAYETAMLDYARYLLAPDNQTFLQDFYRSLQPFIRAGLVNSLTQTVIKLTAPGVPDIYQGSEALNFSLVDPDNRREPDFATLAQQLDQLTPGVFSREESWLNGQVNQYVTAALLRLRQQNHELFRFGDYIPLRAVGQRADKVIAYARVNHDDALIVVAPRLVFAECDGLLSQSHSGFWSGTDIIIPGQLNQHRYRNVLTQERLMPGERLSLASHQGGVLVLMSD”, the “soluble on expression in E. coli” value is reported as “not soluble”.
With “MIQHLSSDTVVIGGGVVGLTIALTVARRHRSVILLDPEEPGSGASYGNAGTIADYAVLPVGTPDVLRQLPSLMFDRNSPLAIRHMALPSLAPWLARFLRQSLPAPARRNAQAIAALLGSATRSWEDLAVEVEGTALLNRRGCLYAYETPQAARAAETDMTFRRTLGVTVELLSAAEFAAMEPSLPPMAGAAYFPKAIFLSDPGRMVALIAEAARKAGVQIVKARATGLERRVDGVIVSGRALQIHGRRAVIAAGAHSRALALCAGDRVPLDTERGYHVEWDMAQPPLTRPTCPTARGFYLCPMAGRLRVAGTVELGGLTARPSPHRIARLVAGARAIFPHLPEPTRSWMGFRPSMPDSLPVIGPSAAGPEILHAYGHGHIGLTLAPITARIVADLLDAKTPELDIAPYLPTRFLEHHHHHH” the “soluble on expression in E. coli” value was “not soluble”.
For “MIQLGGYKPRLSLHNSLFRALVSKQGGILNDQLKQAEFIFHNVVTTGLEVQKDIYSGLIWLHSCQDEVDIGRINSLREEMKKAGFQESKEVVVSLLRAYAKEGGVEEVERTWLELLDLDCGIPSQAFVYKIEAYSKVGDFAKAMEIFREMEKHIGGATMSGYHKIIEVLCKVQQVELVETLMKEFEESGKKPLLPSFIEIAKMYFDLGLHEKLEMAFVQCLEKCQPSQPIYNIYLDSLTKIGNLEKAGDVFNEMKNNGTINVSARSCNSLLKGYLDCGKQVQAERIYDLMRMKKYEIEPPLMEKLDYILSLKKKEVKKRPFSMKLSKDQREVLVGLLLGGLQIESDKEKKSHMIKFEFRENSQAHLVLKQNIHDQFREWLHPLSNFQEDIIPFEFYSVPHSYFGFYAEHYWPKGQPEIPKLIHRWLSPHSLAYWYMYSGVKTSSGDIILRLKGSLEGVEKVVKALQAKSMECRVKKKGKVFWIGLQGTNSALFWKLIEPHVLENLKEHLKPASESLDNVKEAEEQSINFKSNSDHSDDCVNSEAHFY”, the “soluble on expression in E. coli” value was “not soluble”.

Reference: the DeepSol protein solubility set
